Results as given in US20180202002.

Target: T1, N-terminal tagged Cyclin D1 (FLAG-HA-Cyclin D1, tag at the N-terminus), P25322
T1 chain: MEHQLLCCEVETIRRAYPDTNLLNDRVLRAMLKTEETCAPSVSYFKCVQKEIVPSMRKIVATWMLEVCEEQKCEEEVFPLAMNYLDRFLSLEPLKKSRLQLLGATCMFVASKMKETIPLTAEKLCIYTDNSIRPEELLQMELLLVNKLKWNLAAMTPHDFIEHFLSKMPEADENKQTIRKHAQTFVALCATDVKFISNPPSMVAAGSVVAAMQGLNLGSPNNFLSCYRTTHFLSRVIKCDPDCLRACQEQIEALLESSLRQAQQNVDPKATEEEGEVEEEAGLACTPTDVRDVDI

B1: caspase 3 (protein)
chain: MENNKTSVDSKSINNFEVKTIHGSKSVDSGIYLDSSYKMDYPEMGICIIINNKNFHKSTGMSSRSGTDVDAANLRETFMGLKYQVRNKNDLTREDILELMDSVSKEDHSKRSSFVCVILSHGDEGVIYGTNGPVELKKLTSFFRGDYCRSLTGKPKLFIIQACRGTELDCGIETDSGTDEEMACQKIPVEADFLYAYSTAPGYYSWRNSKDGSWFIQSLCSMLKLYAHKLEFMHILTRVNRKVATEFESFSLDSTFHAKKQIPCIVSMLTKELYFYH
levels of cleaved PARP (Western blot) after treatment with 5-FU: The levels of cleaved PARP increase in RAS or ErbB2 cancer cells after treatment with 5-FU, although limited by the Cyclin D1
